Results reported in article PMC13090976 (Cell Stress & Chaperones, 2026).

B1: human CHIP-TPR (residues 21-154) [human] / biotin-… [modified: biotin, printed before the first residue (biotin-…); biotin, printed before the first residue (biotin-…)] [human] (parent)
chain 1: EKSPSAQELKEQGNRLFVGRKYPEAAACYGRAITRNPLVAVYYTNRALCYLKMQQHEQALADCRRALELDGQSVKAHFFLGQCQLEMESYDEAIANLQRAYSLAKEQRLNFGDDIPSALRIAKKKRWNSIEERR
chain 2: GSGSGPTIEEVD

Variants of: B1
Experiment: biolayer interferometry
Conditions: with biotin-… [modified: biotin, read off a plot

koff [s⁻¹] | kon [M⁻¹ s⁻¹] | Variant
0.0031 | 5800 | chain 1 EKSPSAQELKEQGNRLFVGRKYPEAAACYGRAITRNPLVAVYYTNRALCYLKMQQHEQALADCRRALELDGQSVKAHFFLGQCQLEMESYDEAIANLQRAYSLAKEQRLNFNDDIPSALRIAKKKRWNSIEERR [chain 1 G112N]
